Holding throughout (assay): GST pull-down (autoradiography, quantified)
For assay [1], the target named is radiolabeled myc-Sequoia-WT. The following applies: percentage binding relative to 10% of the input; 3 independent experiments; parent: est. 25; read off a plot.
The next assay concerns the target GST-Atg8a K47Q (UniProt Q9W2S2). The following applies: percentage binding relative to 10% of the input; 3 independent experiments; parent: est. 25; read off a plot.
Assay [2] deals with radiolabeled GFP-Sequoia-WT. Conditions: parent: est. 25; read off a plot.
Another assay has as its target GST-Atg8a K46Q (UniProt Q9W2S2). The following applies: percentage binding relative to 10% of the input; 3 independent experiments; parent: est. 25; read off a plot.
In another assay the target is GST-Atg8a-WT (UniProt Q9W2S2). The following applies: parent: est. 25, read off a plot.
Assay [3] has as its target GST-Atg8a-LDS mutant (Y49A) (UniProt Q9W2S2). Conditions: parent: est. 25, read off a plot.
The target in the next assay is GST-Atg8a K48Q (UniProt Q9W2S2). Conditions: percentage binding relative to 10% of the input; 3 independent experiments; parent: est. 25; read off a plot.
Another assay addresses GST-Atg8a K46Q Y49A. Conditions: percentage binding relative to 10% of the input; 3 independent experiments; parent: est. 25; read off a plot.
[4] abbreviates: percentage binding relative to 10% of the input, 3 independent experiments.

These results are taken from article PMC7262597.

Chain of GST-Atg8a-LDS mutant (Y49A) (Q9W2S2 entry or part of it Y49A | Y49A): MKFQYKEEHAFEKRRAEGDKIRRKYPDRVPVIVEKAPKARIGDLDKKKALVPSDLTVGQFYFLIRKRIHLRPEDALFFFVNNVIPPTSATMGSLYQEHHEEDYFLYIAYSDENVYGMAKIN
Chain of GST-Atg8a-WT (Q9W2S2 entry or part of it): as the sequence (Q9W2S2 entry or part of it Y49A | Y49A) above, with A49Y counted along it
Chain of GST-Atg8a K46Q (Q9W2S2 entry or part of it K46Q | K46Q): as the sequence (Q9W2S2 entry or part of it Y49A | Y49A) above, with K46Q, A49Y counted along it
Chain of GST-Atg8a K47Q (Q9W2S2 entry or part of it K47Q | K47Q): as the sequence (Q9W2S2 entry or part of it Y49A | Y49A) above, with K47Q, A49Y counted along it
Chain of GST-Atg8a K48Q (Q9W2S2 entry or part of it K48Q | K48Q): as the sequence (Q9W2S2 entry or part of it Y49A | Y49A) above, with K48Q, A49Y counted along it

Take “GST-Atg8a-WT (from UniProt Q9W2S2) K46Q; Y49A”: the response in assay [1] was 3.6 % Binding.
Same read-out and setting: next, GST-Atg8a-WT (from UniProt Q9W2S2) K47Q: 24 % Binding.
Turning to “m11; m1 Sequoia:Y313A; Sequoia:I316A; Atg8a:K47Q”, the response in the assay with GST-Atg8a K47Q came out at 12 % Binding.
As to GST-Atg8a-WT (from UniProt Q9W2S2) Y49A, the figures for the response in assay [2] and in assay [1] were 8 % of binding and 2.7 % Binding, respectively.
For “m11; m1 Sequoia:Y313A; Sequoia:I316A; Atg8a:K46Q”, the response in the assay with GST-Atg8a K46Q was found to be 18 % Binding.
On to GST-Atg8a-WT (from UniProt Q9W2S2) K48Q, for which, in assay [1], the response was 12 % Binding.
On to “radiolabeled GFP-Sequoia-WT Y313A; I316A”, for which the response with GST-Atg8a-WT is 14 % of binding.
Take “m11; m1 Sequoia:Y313A; Sequoia:I316A; Atg8a:Y49A”: the response in assay [3] (setting [4]) amounted to 2.9 % Binding.
For the substance “m11; m1 Sequoia:Y313A; Sequoia:I316A; Atg8a:K48Q”, the response with GST-Atg8a K48Q amounted to 8 % Binding.
“m11; m1 Sequoia:Y313A; Sequoia:I316A; Atg8a:K46Q; Atg8a:Y49A”: the response with GST-Atg8a K46Q Y49A is 3.2 % Binding.
With “radiolabeled myc-Sequoia-WT Y313A; I316A”, the response in the assay with GST-Atg8a-WT (setting [4]) was 14 % Binding.
Consider “m9; m1 Sequoia:Y313A; Sequoia:I316A; Atg8a:Y49A”, for which the response in assay [3] was 5.6 % of binding.
For GST-Atg8a-WT (from UniProt Q9W2S2) K46Q, in assay [1], the response came out at 25 % Binding.
